Each block holds one binder with its values, some of them ahead of it.
B3: TMM^LRR, extracellular LRR domain of TOO MANY MOUTHS (TMM) (domain or fragment)
chain: MTNDGARTEPDEQDAVYDIMRATGNDWAAAIPDVCRGRWHGIECMPDQDNVYHVVSLSFGALSDDTAFPTCDPQRSYVSESLTRLKHLKALFFYRCLGRAPQRIPAFLGRLGSSLQTLVLRENGFLGPIPDELGNLTNLKVLDLHKNHLNGSIPLSFNRFSGLRSLDLSGNRLTGSIPGFVLPALSVLDLNQNLLTGPVPPTLTSCGSLIKIDLSRNRVTGPIPESINRLNQLVLLDLSYNRLSGPFPSSLQGLNSLQALMLKGNTKFSTTIPENAFKGLKNLMILVLSNTNIQGSIPKSLTRLNSLRVLHLEGNNLTGEIPLEFRDVKHLSELRLNDNSLTGPVPFERDTVWRMRRKLRLYNNAGLCVNRDSDLDDAFGSKSGSTVRLCDAETSRPAPSGTVQHLSREEDGALPDGATDVSST

Assays:
ERL1^LRR–TMM^LRR complex = molecular target: T1, ERL1^LRR–TMM^LRR complex (Arabidopsis thaliana, UniProt C0LGW6;Q9SSD1); assay: ITC
T1 sequence 1: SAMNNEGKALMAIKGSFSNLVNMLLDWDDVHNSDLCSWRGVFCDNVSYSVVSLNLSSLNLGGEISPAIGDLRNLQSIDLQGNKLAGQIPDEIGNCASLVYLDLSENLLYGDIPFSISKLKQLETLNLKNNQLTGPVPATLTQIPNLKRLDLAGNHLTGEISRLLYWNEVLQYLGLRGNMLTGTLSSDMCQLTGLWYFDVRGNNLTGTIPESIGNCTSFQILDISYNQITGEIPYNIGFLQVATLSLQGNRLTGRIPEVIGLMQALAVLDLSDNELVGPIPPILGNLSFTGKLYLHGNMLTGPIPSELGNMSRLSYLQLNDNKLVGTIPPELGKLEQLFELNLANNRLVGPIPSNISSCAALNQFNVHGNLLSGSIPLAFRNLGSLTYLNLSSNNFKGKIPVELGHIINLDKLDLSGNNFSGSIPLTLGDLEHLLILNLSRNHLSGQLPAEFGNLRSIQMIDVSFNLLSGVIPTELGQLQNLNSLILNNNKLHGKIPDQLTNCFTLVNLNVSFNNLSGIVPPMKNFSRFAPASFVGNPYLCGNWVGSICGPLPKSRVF
T1 sequence 2: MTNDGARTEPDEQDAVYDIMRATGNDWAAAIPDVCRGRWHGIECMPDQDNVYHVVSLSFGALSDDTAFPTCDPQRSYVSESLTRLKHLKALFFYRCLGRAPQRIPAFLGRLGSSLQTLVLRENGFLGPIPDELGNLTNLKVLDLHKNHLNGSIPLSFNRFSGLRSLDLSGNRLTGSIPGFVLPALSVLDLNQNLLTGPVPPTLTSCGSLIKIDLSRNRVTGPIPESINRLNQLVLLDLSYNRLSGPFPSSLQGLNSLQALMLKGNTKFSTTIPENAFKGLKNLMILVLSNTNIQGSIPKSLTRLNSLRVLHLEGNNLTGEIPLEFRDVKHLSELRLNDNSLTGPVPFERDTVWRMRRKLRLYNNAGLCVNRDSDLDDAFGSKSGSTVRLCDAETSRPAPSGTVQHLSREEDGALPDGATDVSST

[1] = molecular target: T2, ER^LRR, extracellular LRR domain of ERECTA (ER) (Arabidopsis thaliana, UniProt Q42371 24-580); assay: pull-down
T2 sequence: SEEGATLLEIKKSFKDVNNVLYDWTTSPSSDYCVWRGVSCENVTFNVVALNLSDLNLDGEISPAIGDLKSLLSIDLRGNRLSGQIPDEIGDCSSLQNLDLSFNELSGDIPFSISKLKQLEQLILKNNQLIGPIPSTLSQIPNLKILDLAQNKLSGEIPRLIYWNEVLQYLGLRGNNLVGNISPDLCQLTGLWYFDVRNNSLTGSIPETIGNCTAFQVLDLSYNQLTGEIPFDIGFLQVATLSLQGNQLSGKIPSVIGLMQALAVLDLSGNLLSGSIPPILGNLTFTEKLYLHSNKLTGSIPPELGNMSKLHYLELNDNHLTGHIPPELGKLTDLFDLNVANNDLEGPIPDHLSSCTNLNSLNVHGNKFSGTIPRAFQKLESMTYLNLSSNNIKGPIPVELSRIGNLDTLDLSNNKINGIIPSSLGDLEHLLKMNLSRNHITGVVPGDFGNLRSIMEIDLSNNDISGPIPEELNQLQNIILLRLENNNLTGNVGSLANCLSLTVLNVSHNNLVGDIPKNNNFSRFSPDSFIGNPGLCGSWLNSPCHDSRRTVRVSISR

[2] = molecular target: T3, ERL2^LRR, extracellular LRR domain of ERL2 (Arabidopsis thaliana, UniProt Q6XAT2 28-580); assay: pull-down
T3 sequence: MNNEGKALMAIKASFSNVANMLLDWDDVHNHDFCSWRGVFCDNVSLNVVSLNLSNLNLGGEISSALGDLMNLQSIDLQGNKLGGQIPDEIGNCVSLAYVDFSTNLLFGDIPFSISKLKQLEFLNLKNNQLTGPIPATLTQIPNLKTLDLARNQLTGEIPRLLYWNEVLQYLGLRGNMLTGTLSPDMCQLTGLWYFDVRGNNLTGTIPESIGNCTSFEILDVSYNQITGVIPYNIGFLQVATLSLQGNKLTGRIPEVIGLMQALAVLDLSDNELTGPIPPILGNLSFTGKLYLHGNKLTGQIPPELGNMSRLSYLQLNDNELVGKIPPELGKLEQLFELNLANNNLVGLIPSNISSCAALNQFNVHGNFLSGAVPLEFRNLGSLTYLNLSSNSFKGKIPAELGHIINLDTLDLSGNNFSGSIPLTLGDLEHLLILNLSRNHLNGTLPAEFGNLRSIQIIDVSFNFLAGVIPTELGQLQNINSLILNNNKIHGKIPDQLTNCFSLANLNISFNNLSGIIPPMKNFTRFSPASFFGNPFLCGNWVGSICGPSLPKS

ER^LRR–TMM^LRR complex [3] = molecular target: T4, ER^LRR–TMM^LRR complex (Arabidopsis thaliana, UniProt Q42371;Q9SSD1); assay: SEC
T4 sequence 1: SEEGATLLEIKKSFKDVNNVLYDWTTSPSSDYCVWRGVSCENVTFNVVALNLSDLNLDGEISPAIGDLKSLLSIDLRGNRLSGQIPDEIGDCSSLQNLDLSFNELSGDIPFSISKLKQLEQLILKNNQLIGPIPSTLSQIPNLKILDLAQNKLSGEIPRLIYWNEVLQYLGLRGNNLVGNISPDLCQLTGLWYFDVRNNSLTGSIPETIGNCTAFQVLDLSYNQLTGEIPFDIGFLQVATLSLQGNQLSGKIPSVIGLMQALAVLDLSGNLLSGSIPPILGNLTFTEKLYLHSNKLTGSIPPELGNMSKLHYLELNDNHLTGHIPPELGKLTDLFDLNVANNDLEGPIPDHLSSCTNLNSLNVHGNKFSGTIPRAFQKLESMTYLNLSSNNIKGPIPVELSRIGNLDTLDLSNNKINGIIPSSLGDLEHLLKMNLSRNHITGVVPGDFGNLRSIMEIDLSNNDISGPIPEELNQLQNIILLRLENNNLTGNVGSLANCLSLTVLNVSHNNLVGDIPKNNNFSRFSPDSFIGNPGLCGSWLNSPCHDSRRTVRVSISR
T4 sequence 2: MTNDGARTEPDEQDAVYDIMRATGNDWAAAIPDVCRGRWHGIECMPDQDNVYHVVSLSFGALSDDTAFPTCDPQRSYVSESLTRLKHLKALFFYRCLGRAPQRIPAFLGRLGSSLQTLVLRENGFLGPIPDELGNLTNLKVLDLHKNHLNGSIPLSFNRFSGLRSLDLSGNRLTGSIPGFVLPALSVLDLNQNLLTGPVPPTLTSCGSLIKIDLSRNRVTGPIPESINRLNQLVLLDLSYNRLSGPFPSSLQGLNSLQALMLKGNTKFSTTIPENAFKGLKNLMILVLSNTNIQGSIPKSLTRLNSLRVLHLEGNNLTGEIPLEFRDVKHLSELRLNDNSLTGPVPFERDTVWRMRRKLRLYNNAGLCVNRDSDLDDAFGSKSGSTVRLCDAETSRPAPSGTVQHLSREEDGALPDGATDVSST

[4] = molecular target: B3; assay: crystal structure
[5] = molecular target: T2, ER^LRR, extracellular LRR domain of …; assay: SEC
[6] = molecular target: T5, ERL1^LRR, extracellular LRR domain of ER-LIKE1 (ERL1) (Arabidopsis thaliana, UniProt C0LGW6 24-580); assay: SEC
T5 sequence: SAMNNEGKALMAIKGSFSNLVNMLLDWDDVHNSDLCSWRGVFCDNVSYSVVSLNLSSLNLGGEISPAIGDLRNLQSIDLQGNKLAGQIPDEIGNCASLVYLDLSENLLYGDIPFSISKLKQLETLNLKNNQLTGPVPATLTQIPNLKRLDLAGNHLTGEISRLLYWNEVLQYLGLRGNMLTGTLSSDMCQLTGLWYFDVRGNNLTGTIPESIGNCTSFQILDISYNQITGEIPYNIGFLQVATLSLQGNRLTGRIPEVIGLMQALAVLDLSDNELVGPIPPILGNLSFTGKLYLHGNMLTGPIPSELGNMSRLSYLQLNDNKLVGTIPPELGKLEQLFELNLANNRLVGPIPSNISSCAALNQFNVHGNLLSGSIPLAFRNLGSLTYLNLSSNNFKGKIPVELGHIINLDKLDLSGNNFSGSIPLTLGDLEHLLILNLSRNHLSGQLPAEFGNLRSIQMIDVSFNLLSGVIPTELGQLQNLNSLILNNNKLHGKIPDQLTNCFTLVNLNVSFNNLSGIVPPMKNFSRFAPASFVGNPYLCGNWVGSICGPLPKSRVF

ER^LRR–TMM^LRR complex [7] = molecular target: T4, ER^LRR–TMM^LRR complex; assay: pull-down

- Kd (ERL1^LRR–TMM^LRR complex): 1300 nM
- binding result [1]: binds
- binding result [2]: binds
B1: EPFL4 (CHALLAH-LIKE2, CLL2) peptide, residues 59–109 (peptide)
chain: PGSSPPTCRSKCGKCQPCKPVHVPIQPGLSMPLEYYPEAWRCKCGNKLFMP

- binding result (ER^LRR–TMM^LRR complex [3]): binds
- binding result [4]: binds
B2: … PATTERNING FACTOR 1 (EPF1) peptide, residues 53–104 (peptide)
chain: AGSRLPDCSHACGSCSPCRLVMVSFVCASVEEAETCPMAYKCMCNNKSYPVP

Binder: B3
- stoichiometry N [5]: ~1
- stoichiometry N [6]: ~1

- binding result (ER^LRR–TMM^LRR complex [3]): binds
- binding result [4]: binds
B4: … PATTERNING FACTOR 2 (EPF2) peptide, residues 69–120 (peptide)
chain: TGSSLPDCSYACGACSPCKRVMISFECSVAESCSVIYRCTCRGRYYHVPSRA

- binding result (ER^LRR–TMM^LRR complex [7]): binds
B5: EPF2-6xHis (C-terminally His-tagged EPF2) (peptide)
chain: TGSSLPDCSYACGACSPCKRVMISFECSVAESCSVIYRCTCRGRYYHVPSRA

From paper PMC5458759 (Genes & Development, 2017)
